What was measured:
HeLa Kyoto [1] = test: melting temperature (median over replicates), in situ; higher = more thermally stable
HeLa Kyoto [2] = test: thermal stability score vs G1/S (z-score of summed log2 fold changes over temperatures); higher = more thermally stable than in G1/S
HeLa Kyoto [3] = test: solubility in G1/S (NP-40 vs SDS abundance) (log2 ratio); higher = more soluble; conditions: cell cycle stage: G1/S
HeLa Kyoto [4] = test: solubility change mitosis vs G1/S (difference of NP-40 vs SDS log2 ratios) (log2 ratio difference); higher = more soluble in mitosis
[5] = cell cycle stage: early G1 (4.5 h after nocodazole release)
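Wherever melting temperature (median over replicates), in situ is given: HeLa Kyoto cells synchronized by double thymidine or nocodazole block, proteins quantified by TMT10plex mass spectrometry, three independent biological replicates.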
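Wherever solubility change mitosis vs G1/S (difference of NP-40 vs SDS log2 ratios) is given: synchronized HeLa Kyoto cells (double thymidine block for G1/S, nocodazole release for mitosis), protein amounts in NP-40 versus SDS lysates quantified by mass spectrometry, three biological replicates.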
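Wherever solubility in G1/S (NP-40 vs SDS abundance) is given: HeLa Kyoto cells arrested at G1/S by double thymidine block, proteins quantified by TMT10plex mass spectrometry in mild NP-40 versus SDS extracts, three biological replicates.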
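Wherever thermal stability score vs G1/S (z-score of summed log2 fold changes over temperatures) is given: synchronized HeLa Kyoto cells, proteins quantified by TMT10plex mass spectrometry, three biological replicates, mitosis taken 0.5 h after nocodazole release, G1/S directly after double thymidine block.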

## MPAVASVPKELYLSSSLKDLNKKTEVKPEKISTKSYVHSALKIFKTAEECRLDRDEERAYVLYMKYVTVYNLIKKRPDFKQQQDYFHSILGPGNIKKAVEEAERLSESLKLRYEEAEVRKKLEEKDRQEEAQRLQQKRQETGREDGGTLAKGSLENVLDSKDKTQKSNGEKNEKCETKEKGAITAKELYTMMTDKNISLIIMDARRMQDYQDSCILHSLSVPEEAISPGVTASWIEAHLPDDSKDTWKKRGNVEYVVLLDWFSSAKDLQIGTTLRSLKDALFKWESKTVLRNEPLVLEGGYENWLLCYPQYTTNAKVTPPPRRQNEEVSISLDFTYPSLEESIPSKPAAQTPPASIEVDENIELISGQNERMGPLNISTPVEPVAASKSDVSPIIQPVPSIKNVPQIDRTKKPAVKLPEEHRIKSESTNHEQQSPQSGKVIPDRSTKPVVFSPTLMLTDEEKARIHAETALLMEKNKQEKELRERQQEEQKEKLRKEEQEQKAKKKQEAEENEITEKQQKAKEEMEKKESEQAKKEDKETSAKRGKEITGVKRQSKSEHETSDAKKSVEDRGKRCPTPEIQKKSTGDVPHTSVTGDSGSGKPFKIKGQPESGILRTGTFREDTDDTERNKAQREPLTRARSEEMGRIVPGLPSGWAKFLDPITGTFRYYHSPTNTVHMYPPEMAPSSAPPSTPPTHKAKPQIPAERDREPSKLKRSYSSPDITQAIQEEEKRKPTVTPTVNRENKPTCYPKAEISRLSASQIRNLNPVFGGSGPALTGLRNLGNTCYMNSILQCLCNAPHLADYFNRNCYQDDINRSNLLGHKGEVAEEFGIIMKALWTGQYRYISPKDFKITIGKINDQFAGYSQQDSQELLLFLMDGLHEDLNKADNRKRYKEENNDHLDDFKAAEHAWQKHKQLNESIIVALFQGQFKSTVQCLTCHKKSRTFEAFMYLSLPLASTSKCTLQDCLRLFSKEEKLTDNNRFYCSHCRARRDSLKKIEIWKLPPVLLVHLKRFSYDGRWKQKLQTSVDFPLENLDLSQYVIGPKNNLKKYNLFSVSNHYGGLDGGHYTAYCKNAARQRWFKFDDHEVSDISVSSVKSSAAYILFYTSLGPRVTDVAT [USP8]
HeLa Kyoto [1]; cell cycle stage: G1/S
  melting temperature: 49.2 °C
HeLa Kyoto [1]; cell cycle stage: mitosis
  melting temperature: 49.3 °C
HeLa Kyoto [2]; [5]
  thermal stability score: -0.07
HeLa Kyoto [2]; cell cycle stage: mitosis
  thermal stability score: -0.00341
HeLa Kyoto [3]
  solubility in G1/S (log2): -0.121
HeLa Kyoto [4]
  solubility change mitosis (log2): -0.0263

## MAGPRGALLAWCRRQCEGYRGVEIRDLSSSFRDGLAFCAILHRHRPDLLDFDSLSKDNVFENNRLAFEVAEKELGIPALLDPNDMVSMSVPDCLSIMTYVSQYYNHFCSPGQAGVSPPRKGLAPCSPPSVAPTPVEPEDVAQGEELSSGSLSEQGTGQTPSSTCAACQQHVHLVQRYLADGRLYHRHCFRCRRCSSTLLPGAYENGPEEGTFVCAEHCARLGPGTRSGTRPGPFSQPKQQHQQQLAEDAKDVPGGGPSSSAPAGAEADGPKASPEARPQIPTKPRVPGKLQELASPPAGRPTPAPRKASESTTPAPPTPRPRSSLQQENLVEQAGSSSLVNGRLHELPVPKPRGTPKPSEGTPAPRKDPPWITLVQAEPKKKPAPLPPSSSPGPPSQDSRQVENGGTEEVAQPSPTASLESKPYNPFEEEEEDKEEEAPAAPSLATSPALGHPESTPKSLHPWYGITPTSSPKTKKRPAPRAPSASPLALHASRLSHSEPPSATPSPALSVESLSSESASQTAGAELLEPPAVPKSSSEPAVHAPGTPGNPVSLSTNSSLASSGELVEPRVEQMPQASPGLAPRTRGSSGPQPAKPCSGATPTPLLLVGDRSPVPSPGSSSPQLQVKSSCKENPFNRKPSPAASPATKKATKGSKPVRPPAPGHGFPLIKRKVQADQYIPEEDIHGEMDTIERRLDALEHRGVLLEEKLRGGLNEGREDDMLVDWFKLIHEKHLLVRRESELIYVFKQQNLEQRQADVEYELRCLLNKPEKDWTEEDRAREKVLMQELVTLIEQRNAIINCLDEDRQREEEEDKMLEAMIKKKEFQREAEPEGKKKGKFKTMKMLKLLGNKRDAKSKSPRDKS [MICALL1]
HeLa Kyoto [1]; cell cycle stage: G1/S
  melting temperature: 49.4 °C
HeLa Kyoto [1]; cell cycle stage: mitosis
  melting temperature: 50.5 °C
HeLa Kyoto [2]; [5]
  thermal stability score: -0.815
HeLa Kyoto [2]; cell cycle stage: mitosis
  thermal stability score: 1.14
HeLa Kyoto [3]
  solubility in G1/S (log2): 0.417
HeLa Kyoto [4]
  solubility change mitosis (log2): -0.0692

## MEATTAGVGRLEEEALRRKERLKALREKTGRKDKEDGEPKTKHLREEEEEGEKHRELRLRNYVPEDEDLKKRRVPQAKPVAVEEKVKEQLEAAKPEPVIEEVDLANLAPRKPDWDLKRDVAKKLEKLKKRTQRAIAELIRERLKGQEDSLASAVDAATEQKTCDSD [CCDC12]
HeLa Kyoto [1]; cell cycle stage: G1/S
  melting temperature: 53.7 °C
HeLa Kyoto [1]; cell cycle stage: mitosis
  melting temperature: 53.3 °C
HeLa Kyoto [2]; [5]
  thermal stability score: -1.88
HeLa Kyoto [2]; cell cycle stage: mitosis
  thermal stability score: -2.79
HeLa Kyoto [3]
  solubility in G1/S (log2): 0.73
HeLa Kyoto [4]
  solubility change mitosis (log2): 0.156

## MGDAPSPEEKLHLITRNLQEVLGEEKLKEILKERELKIYWGTATTGKPHVAYFVPMSKIADFLKAGCEVTILFADLHAYLDNMKAPWELLELRVSYYENVIKAMLESIGVPLEKLKFIKGTDYQLSKEYTLDVYRLSSVVTQHDSKKAGAEVVKQVEHPLLSGLLYPGLQALDEEYLKVDAQFGGIDQRKIFTFAEKYLPALGYSKRVHLMNPMVPGLTGSKMSSSEEESKIDLLDRKEDVKKKLKKAFCEPGNVENNGVLSFIKHVLFPLKSEFVILRDEKWGGNKTYTAYVDLEKDFAAEVVHPGDLKNSVEVALNKLLDPIREKFNTPALKKLASAAYPDPSKQKPMAKGPAKNSEPEEVIPSRLDIRVGKIITVEKHPDADSLYVEKIDVGEAEPRTVVSGLVQFVPKEELQDRLVVVLCNLKPQKMRGVESQGMLLCASIEGINRQVEPLDPPAGSAPGEHVFVKGYEKGQPDEELKPKKKVFEKLQADFKISEECIAQWKQTNFMTKLGSISCKSLKGGNIS [YARS]
HeLa Kyoto [1]; cell cycle stage: G1/S
  melting temperature: 49.3 °C
HeLa Kyoto [1]; cell cycle stage: mitosis
  melting temperature: 49.4 °C
HeLa Kyoto [2]; [5]
  thermal stability score: 0.25
HeLa Kyoto [2]; cell cycle stage: mitosis
  thermal stability score: 2.33
HeLa Kyoto [3]
  solubility in G1/S (log2): 0.259
HeLa Kyoto [4]
  solubility change mitosis (log2): -0.092

## HCFC1
HeLa Kyoto [1]; cell cycle stage: G1/S
  melting temperature: 52.5 °C
HeLa Kyoto [1]; cell cycle stage: mitosis
  melting temperature: 52.7 °C
HeLa Kyoto [2]; [5]
  thermal stability score: -0.303
HeLa Kyoto [2]; cell cycle stage: mitosis
  thermal stability score: 0.00236
HeLa Kyoto [3]
  solubility in G1/S (log2): 0.179
HeLa Kyoto [4]
  solubility change mitosis (log2): -0.0808

## MGFLQLLVVAVLASEHRVAGAAEVFGNSSEGLIEFSVGKFRYFELNRPFPEEAILHDISSNVTFLIFQIHSQYQNTTVSFSPTLLSNSSETGTASGLVFILRPEQSTCTWYLGTSGIQPVQNMAILLSYSERDPVPGGCNLEFDLDIDPNIYLEYNFFETTIKFAPANLGYARGVDPPPCDAGTDQDSRWRLQYDVYQYFLPENDLTEEMLLKHLQRMVSVPQVKASALKVVTLTANDKTSVSFSSLPGQGVIYNVIVWDPFLNTSAAYIPAHTYACSFEAGEGSCASLGRVSSKVFFTLFALLGFFICFFGHRFWKTELFFIGFIIMGFFFYILITRLTPIKYDVNLILTAVTGSVGGMFLVAVWWRFGILSICMLCVGLVLGFLISSVTFFTPLGNLKIFHDDGVFWVTFSCIAILIPVVFMGCLRILNILTCGVIGSYSVVLAIDSYWSTSLSYITLNVLKRALNKDFHRAFTNVPFQTNDFIILAVWGMLAVSGITLQIRRERGRPFFPPHPYKLWKQERERRVTNILDPSYHIPPLRERLYGRLTQIKGLFQKEQPAGERTPLLL [TM7SF3]
HeLa Kyoto [1]; cell cycle stage: G1/S
  melting temperature: 56.8 °C
HeLa Kyoto [1]; cell cycle stage: mitosis
  melting temperature: 55.3 °C
HeLa Kyoto [2]; [5]
  thermal stability score: -2.81
HeLa Kyoto [2]; cell cycle stage: mitosis
  thermal stability score: -4.36
HeLa Kyoto [3]
  solubility in G1/S (log2): -0.147
HeLa Kyoto [4]
  solubility change mitosis (log2): -0.244

## MGRLDGKVIILTAAAQGIGQAAALAFAREGAKVIATDINESKLQELEKYPGIQTRVLDVTKKKQIDQFANEVERLDVLFNVAGFVHHGTVLDCEEKDWDFSMNLNVRSMYLMIKAFLPKMLAQKSGNIINMSSVASSVKGVVNRCVYSTTKAAVIGLTKSVAADFIQQGIRCNCVCPGTVDTPSLQERIQARGNPEEARNDFLKRQKTGRFATAEEIAMLCVYLASDESAYVTGNPVIIDGGWSL [BDH2]
HeLa Kyoto [1]; cell cycle stage: G1/S
  melting temperature: 51.4 °C
HeLa Kyoto [1]; cell cycle stage: mitosis
  melting temperature: 51.3 °C
HeLa Kyoto [2]; [5]
  thermal stability score: 0.0249
HeLa Kyoto [2]; cell cycle stage: mitosis
  thermal stability score: -0.29
HeLa Kyoto [3]
  solubility in G1/S (log2): 0.0418
HeLa Kyoto [4]
  solubility change mitosis (log2): -0.101

## MPGKLRSDAGLESDTAMKKGETLRKQTEEKEKKEKPKSDKTEEIAEEEETVFPKAKQVKKKAEPSEVDMNSPKSKKAKKKEEPSQNDISPKTKSLRKKKEPIEKKVVSSKTKKVTKNEEPSEEEIDAPKPKKMKKEKEMNGETREKSPKLKNGFPHPEPDCNPSEAASEESNSEIEQEIPVEQKEGAFSNFPISEETIKLLKGRGVTFLFPIQAKTFHHVYSGKDLIAQARTGTGKTFSFAIPLIEKLHGELQDRKRGRAPQVLVLAPTRELANQVSKDFSDITKKLSVACFYGGTPYGGQFERMRNGIDILVGTPGRIKDHIQNGKLDLTKLKHVVLDEVDQMLDMGFADQVEEILSVAYKKDSEDNPQTLLFSATCPHWVFNVAKKYMKSTYEQVDLIGKKTQKTAITVEHLAIKCHWTQRAAVIGDVIRVYSGHQGRTIIFCETKKEAQELSQNSAIKQDAQSLHGDIPQKQREITLKGFRNGSFGVLVATNVAARGLDIPEVDLVIQSSPPKDVESYIHRSGRTGRAGRTGVCICFYQHKEEYQLVQVEQKAGIKFKRIGVPSATEIIKASSKDAIRLLDSVPPTAISHFKQSAEKLIEEKGAVEALAAALAHISGATSVDQRSLINSNVGFVTMILQCSIEMPNISYAWKELKEQLGEEIDSKVKGMVFLKGKLGVCFDVPTASVTEIQEKWHDSRRWQLSVATEQPELEGPREGYGGFRGQREGSRGFRGQRDGNRRFRGQREGSRGPRGQRSGGGNKSNRSQNKGQKRSFSKAFGQ [DDX21]
HeLa Kyoto [1]; cell cycle stage: G1/S
  melting temperature: 49.3 °C
HeLa Kyoto [1]; cell cycle stage: mitosis
  melting temperature: 50.8 °C
HeLa Kyoto [2]; [5]
  thermal stability score: 5.09
HeLa Kyoto [2]; cell cycle stage: mitosis
  thermal stability score: 6.63
HeLa Kyoto [3]
  solubility in G1/S (log2): -1.67
HeLa Kyoto [4]
  solubility change mitosis (log2): 0.826
